# Source: patent US12098206B2, “PDGF receptor antibody and use thereof” (Seoul National University R&DB Foundation, priority 2018, dated 2024)
# “Also recorded” adds a separate entry of the source.
# B1: PRb-CN32: anti-hPDGFR-β scFv clone (VH SEQ ID NO 47, VL SEQ ID NO 48), tested as scFv-Cκ-anti-cotinine scFv bispecific antibody (antibody, V domains shown)
# VH: AVTLDESGGGLQTPRGTLSLVCKASGFTFSSFNMFWVRQAPGKGLEFVAGISTTGRYTGYGSAVQGRGTISRDNGQSTVRLQLNNLRAEDTGTYYCAKSAGSTYSYWDSDAGLIDAWGHGTEVIVSSTS
# VL: LTQPSSVSANLGETVKITCSGGSNAGSYYYGWYQQKSPGSAPVTVIYSNNQRPSDIPSRFSGSTSGSTSTLTITGVQVDDEAVYFCGSGDSSSIAAFGAGTTLTVL
# modifications: VH of PRb-CN32; VL of PRb-CN32
# B2: PRb-CN26: anti-hPDGFR-β scFv clone (VH SEQ ID NO 55, VL SEQ ID NO 56), tested as scFv-Cκ-anti-cotinine scFv bispecific antibody (antibody, V domains shown)
# VH: AVTLDESGGGLQTPGGGLSLVCKASGFTFSDRGIHWVRQAPGKGLEWVAGIGNTGSYTAYAPAVKGRATISRDNGQSTVRLQLNNLRAEDTATYYCAKRGFMDAGGIDAWGHGTEVIVSSTS
# VL: LTQPSSVSANPGETVKITCSGGGSYAGSYYYGWYQQKSPGSAPVTVIYDNTNRPSNIPSRFSGSLSGSTDTLTITGVQAEDEAVYFCGGYDGISDTGIFGAGTTLTVL
# modifications: VH of PRb-CN26; VL of PRb-CN26
# B3: PRb-CN01: anti-mPDGFR-β chicken scFv clone (VH SEQ ID NO 7, VL SEQ ID NO 8), tested as scFv-Cκ-anti-cotinine scFv bispecific antibody (antibody, V domains shown)
# VH: AVTLDESGGGLQTPGGALSLVCKASGFTFSDRAMHWVRQAPGKGLEWVGLITNTGGSTNYGAAVKGRATISRDNGQSTVRLQLNNLRAEDTGTYYCTRGVGSWAHGGRIDAWGHGTEVIVSS
# VL: LTQPSSVSANPGETVKITCSGGSGSYGWFQQKSPGSAPVTVIYSNNQRPSDIPSRFSGSKSGSTNTLTITGVQAEDEAIYYCGTRDSSYVGIFGAGTTLTVL
# modifications: VH of PRb-CN01; VL of PRb-CN01
# B4: PRb-CN16: anti-hPDGFR-β scFv clone (VH SEQ ID NO 39, VL SEQ ID NO 40), tested as scFv-Cκ-anti-cotinine scFv bispecific antibody (antibody, V domains shown)
# VH: AVTLDESGGGLQTPGTALSLVCKASGFTFSSFNMAWVRQAPGKGLEFVGEISNTAGSTFYAPAVKGRATISRDNGQSTVRLQLNNLRAEDTAIYYCAKAAGTCYSHSCTGYIDAWGHGTEVIVSSTS
# VL: LTQPSSVSANPGETVKITCSGSSSSYGWYQQKSPGSAPVTLIYENNQRPSNIPSRFSGSKSGSTGTLTITGVQAEDEAVYYCGNADRSNSAGTFGAGTTLTVL
# modifications: VH of PRb-CN16; VL of PRb-CN16
# Legend:
# A-431 cells = experiment: Cytotoxicity in A-431 cells not expressing hPDGFR-β; assay type: cell-based; conditions: complex with cot-duo (DAR4); FIG. 16
# Protocol: FIG. 16 is a graph showing that cytotoxicity assays of bispecific antibody related with anti-hPDGFR-β antibody complexed with cot-duo complexes on the cells not expressing hPDGFR-β. A-431 cells were treated with anti-hPDGFR-β x cotinine fusion protein and cot-duo (DAR4). The cellular ATP levels were measured to determine relative cell viability. Bispecific anti-mCD154 x cotinine scFv-Cκ-scFv fusion protein was used as a negative control. DMSO was used as a vehicle control of cot-duo. Results are shown as the mean±SD acquired from three repetitive experiments.
# All of the anti-hPDGFR-β x cotinine scFv-Cκ-scFv fusion proteins had not higher toxicity than the control antibody anti-mCD154 x cotinine scFv-Cκ-scFv fusion protein (FIG. 16). Therefore, as a result of anti-proliferative analysis result, the bispecific antibody/cot-duo complex had higher cytotoxicity in the human pericyte cell lines expressing hPDGFR-β, compared to the control anti-mCD154 x cotinine scFv-Cκ-scFv, but there was no difference in cytotoxicity in A-431 not expressing hPDGFR-β, compared to the control anti-mCD154 x cotinine scFv-Cκ-scFv.
# hPDGFR-β and cotinine = target: T1, hPDGFR-β and cotinine (Homo sapiens, UniProt P09619); experiment: Enzyme immunoassay, simultaneous binding to cotinine and hPDGFR-β; conditions: cotinine-BSA coated wells, then hPDGFR-β-Fc chimera; FIG. 12d
# T1 construct: made in house
# Protocol: In order to determine of the simultaneous binding ability of cotinine and hPDGFR-β, an anti-hPDGFR-β x cotinine scFv-Cκ-scFv fusion protein was cultured in wells coated with cotinine-BSA. Washing was performed for each process, and hPDGFR-β-Fc chimeric protein and HRP-anti human Fc antibody were incubated in order. The three kinds of bispecific antibody scFv-Cκ-scFv fusion proteins simultaneously bound to hPDGFR-β and cotinine (FIG. 12d).
# human pericyte cells = experiment: Internalization analysis by confocal microscopy in human pericyte cells; assay type: cell-based
# Protocol: Human pericyte cells were treated with the diluted bispecific antibody scFv-Cκ-scFv (10 μg/mL) in pericyte growth medium supplemented with 10% FBS, and internalized at 37° C. for 30 minutes. The analysis was performed in the same manner according to the protocol of the confocal microscope of the anti-mPDGFR-β x cotinine scFv-Cκ-scFv fusion protein of Example 4. After the addition of hPDGF-BB (50 ng/mL) to the bispecific antibody scFv-Cκ-scFv fusion protein, the confocal microscopy experiments were performed according to the same protocol.
# The internalization of the bispecific antibody scFv-Cκ-scFv fusion protein was visualized. After treatment of human pericyte cells with the fusion protein, antibodies bound to the cell surface were removed. After cell fixation, the fusion protein was stained with FITC-anti human Cκ antibody (green). To visualize early endosomes, the cells were stained with anti-Rab5 antibody and Alexa Fluor 546-goat anti-rabbit antibody IgG (red). […] DNA was stained with DAPI (blue)(Scale bar, 10 μm). FIG. 13d was repeated with hPDGF-BB.
# To measure the cellular internalization of the bispecific antibody of scFv-Cκ-scFv, anti-hPDGFR-β x cotinine scFv-Cκ-scFv fusion protein was incubated in human pericyte cells, and then treated with FITC-anti-human Cκ antibody and endosome-specific antibody. It was imaged using a confocal microscope. […] When the images were merged, the present inventors confirmed that the fluorescence of the two antibody clones and the endosome-specific antibody were co-localized. […] Internalization of the antibody is very important for delivery of drug into the target cell. […] Therefore, it is useful for intracellular delivery of drug to patients with diseases.
# [1] = target: T2, NIH3T3 cells expressing mPDGFR-β (Mus musculus, UniProt P05622); experiment: Flow cytometry competition against PRb-CN01-rabbit Fc on NIH3T3 cells; assay type: binding; conditions: PRb-CN01-rabbit Fc 50 nM, competitor 1 μM, FIG. 19b
# T2 construct: host or cells: NIH3T3
# Protocol: According to the same manner as in Example 5, PRb-CN01-rabbit Fc (50 nM) and PRb-CN01, control antibody, PRb-CN32 bispecific antibody scFv-Cκ-scFv (1 μM) were cultured on NIH3T3 cells for 1 hour. After washing, it was reacted with FITC-anti rabbit Fc antibody (172-1506, KPL, Gaithersburg, Maryland, USA) at 4° C. for 1 hour. After washing, it was classified and analyzed with a FACS Canto II instrument (BD Biosciences, San Jose, CA, USA). 10,000 cells were identified for each measurement. The results were analyzed by FlowJo (Tree Star, Ashland, OR, USA) (FIG. 19b).
# PDGFR-β = PDGFR-β (Homo sapiens, UniProt P09619); experiment: Competition enzyme immunoassay with hPDGF-BB; assay type: binding; parameters: made in house; conditions: hPDGF-BB 100 nM
# Protocol: In order to confirm the competition between the bispecific antibody scFv-Cκ-scFv and hPDGF-BB, as in Example 3, hPDGFR-β-Fc chimera was coated on a microtiter plate and then blocked. The microtiter plate was treated with various concentrations of the bispecific antibody (0.01 nM-1 μM) with or without addition of hPDGF-BB (100 nM; 220-BB; R&D systems), and then incubated at 37° C. for 2 hours. The washing, incubation, and detection were performed in the same manner as the enzyme immunoassay described above.
# [2] = 10 μg/mL, 37° C., 30 minutes, absence of hPDGF-BB, FIG. 13c
# [3] = treated with hPDGF-BB (50 ng/mL), FIG. 13d
# T1 sequence (P09619 33-531): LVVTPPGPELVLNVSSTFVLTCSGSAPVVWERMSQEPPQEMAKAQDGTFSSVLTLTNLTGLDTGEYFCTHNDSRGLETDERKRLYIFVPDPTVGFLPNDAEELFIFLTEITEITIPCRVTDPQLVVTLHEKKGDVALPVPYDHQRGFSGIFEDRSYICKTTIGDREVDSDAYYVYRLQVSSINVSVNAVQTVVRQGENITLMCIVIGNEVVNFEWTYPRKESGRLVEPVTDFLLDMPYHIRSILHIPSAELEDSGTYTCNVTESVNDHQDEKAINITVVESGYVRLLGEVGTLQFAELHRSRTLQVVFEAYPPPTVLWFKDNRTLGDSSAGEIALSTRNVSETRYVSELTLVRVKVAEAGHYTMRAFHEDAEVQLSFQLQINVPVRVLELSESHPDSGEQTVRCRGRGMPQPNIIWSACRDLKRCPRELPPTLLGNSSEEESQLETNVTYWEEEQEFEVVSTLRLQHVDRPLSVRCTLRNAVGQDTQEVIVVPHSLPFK
# Sequence of PDGFR-β (P09619 33-531): as above
# T2 sequence (P05622 32-1098): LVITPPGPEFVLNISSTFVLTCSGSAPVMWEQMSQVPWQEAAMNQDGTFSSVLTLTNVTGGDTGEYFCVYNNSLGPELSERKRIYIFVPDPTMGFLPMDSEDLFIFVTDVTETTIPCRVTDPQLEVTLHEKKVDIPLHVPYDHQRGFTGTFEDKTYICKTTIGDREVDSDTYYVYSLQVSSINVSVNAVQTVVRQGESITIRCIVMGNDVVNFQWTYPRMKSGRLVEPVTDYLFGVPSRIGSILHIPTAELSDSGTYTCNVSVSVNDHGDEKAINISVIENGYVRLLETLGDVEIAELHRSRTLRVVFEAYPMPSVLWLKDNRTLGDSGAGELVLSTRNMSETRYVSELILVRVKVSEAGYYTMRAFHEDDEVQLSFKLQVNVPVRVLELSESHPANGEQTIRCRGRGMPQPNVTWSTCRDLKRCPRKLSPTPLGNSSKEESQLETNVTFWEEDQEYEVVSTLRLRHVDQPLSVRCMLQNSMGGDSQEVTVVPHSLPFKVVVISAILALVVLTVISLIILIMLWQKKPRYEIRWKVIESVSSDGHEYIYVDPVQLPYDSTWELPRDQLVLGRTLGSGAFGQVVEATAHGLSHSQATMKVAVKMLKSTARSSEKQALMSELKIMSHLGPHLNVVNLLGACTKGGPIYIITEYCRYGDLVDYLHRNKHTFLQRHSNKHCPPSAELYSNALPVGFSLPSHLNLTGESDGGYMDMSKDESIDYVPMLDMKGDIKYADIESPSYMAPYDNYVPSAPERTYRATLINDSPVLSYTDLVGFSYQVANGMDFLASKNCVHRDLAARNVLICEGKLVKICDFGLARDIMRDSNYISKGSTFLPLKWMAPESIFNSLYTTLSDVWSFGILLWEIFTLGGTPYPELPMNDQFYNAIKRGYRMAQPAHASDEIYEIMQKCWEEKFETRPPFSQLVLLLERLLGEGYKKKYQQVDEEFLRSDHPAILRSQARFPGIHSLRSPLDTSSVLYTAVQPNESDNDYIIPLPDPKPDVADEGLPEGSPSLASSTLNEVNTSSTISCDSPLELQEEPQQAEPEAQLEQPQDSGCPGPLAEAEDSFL
Molecule,toxicity in A-431 cells compared to control anti-mCD154 x cotinine scFv-Cκ-scFv (A-431 cells),simultaneous binding to hPDGFR-β and cotinine (hPDGFR-β and cotinine),cellular internalization (human pericyte cells; [2]),cellular internalization (human pericyte cells; [3]),inhibition of binding of PRb-CN01-rabbit Fc to mPDGFR-β on the cell surface [1],binding ability to hPDGFR-β in the presence of hPDGF-BB (PDGFR-β)
B1,equivalent cytotoxicity,capable of simultaneously binding hPDGFR-β and cotinine,Intracellular fluorescence was detected; also recorded: internalizes most effectively,co-localized with endosome-specific antibody,inhibited,not inhibited in the presence of hPDGF-BB
B2,equivalent cytotoxicity,capable of simultaneously binding hPDGFR-β and cotinine,not internalized,co-localized with endosome-specific antibody; also recorded: internalized in a large amount within 30 minutes,,not inhibited in the presence of hPDGF-BB
B3,,,,,inhibited,
B4,equivalent cytotoxicity,capable of simultaneously binding hPDGFR-β and cotinine,Intracellular fluorescence was detected,co-localized with endosome-specific antibody,,not inhibited in the presence of hPDGF-BB
